Reference: article PMC8253979, “The C-terminal tail extension of myosin 16 acts as a molten globule, including intrinsically disordered regions, and interacts with the N-terminal ankyrin” (The Journal of Biological Chemistry, 2021)

Assays:
Details in all cases: both partners purified
[1] = target: T1, myosin 16 C-terminal tail (Myo16Tail), His6-tagged, with the IQ motif (Rattus norvegicus, UniProt Q9ERC1 1146-1912); assay: fluorescence polarisation; steady-state fluorescence anisotropy; Alexa568–Myo16Ank fixed (1.2 μM with Myo16Tail, 1 μM with Myo16Tail (−IQ)), tail construct titrated; λex 578 nm, λem 601 nm; quadratic binding equation (Equation 1)
T1 construct: Myosin 16 (Myo16b isoform, 1912 aa), Rattus norvegicus, UniProt Q9ERC1, residues 1146-1912: IQ motif, NHM, proline-rich region and C-terminal element; cloned into pFastBac; No removal of the His6 tag is described; also called His6–Myo16Tail; C-terminal tail extension of Myo16b; source: baculovirus/Sf9, purified under denaturing conditions (6 M GuHCl, 8 M urea, Ni-NTA), renatured by dialysis
T1 sequence (looked up): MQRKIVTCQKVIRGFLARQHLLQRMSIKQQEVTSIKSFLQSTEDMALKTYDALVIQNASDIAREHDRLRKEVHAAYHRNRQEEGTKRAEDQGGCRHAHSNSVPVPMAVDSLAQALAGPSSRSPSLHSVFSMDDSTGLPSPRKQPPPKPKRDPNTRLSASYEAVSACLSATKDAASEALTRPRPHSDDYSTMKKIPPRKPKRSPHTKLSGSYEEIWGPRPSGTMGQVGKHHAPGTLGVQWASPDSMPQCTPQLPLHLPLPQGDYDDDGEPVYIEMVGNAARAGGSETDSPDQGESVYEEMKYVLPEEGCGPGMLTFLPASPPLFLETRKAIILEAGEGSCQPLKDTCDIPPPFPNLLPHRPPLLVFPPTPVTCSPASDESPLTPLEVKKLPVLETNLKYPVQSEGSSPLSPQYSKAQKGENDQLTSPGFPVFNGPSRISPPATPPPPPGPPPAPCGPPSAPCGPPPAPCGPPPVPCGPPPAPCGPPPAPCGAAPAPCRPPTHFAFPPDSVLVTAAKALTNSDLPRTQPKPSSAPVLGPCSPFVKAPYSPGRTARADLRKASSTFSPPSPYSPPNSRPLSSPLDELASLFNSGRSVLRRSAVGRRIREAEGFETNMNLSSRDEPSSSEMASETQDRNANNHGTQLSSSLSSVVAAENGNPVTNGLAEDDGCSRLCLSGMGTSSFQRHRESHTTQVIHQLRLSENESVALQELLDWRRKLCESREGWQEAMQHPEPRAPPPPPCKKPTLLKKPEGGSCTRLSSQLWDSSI

[2] = target: T2, Myo16Tail without the IQ motif, Myo16Tail (−IQ), His6-tagged (Rattus norvegicus, UniProt Q9ERC1 1176-1912); assay: as above
T2 construct: Myosin 16 (Myo16b isoform), Rattus norvegicus, UniProt Q9ERC1, residues 1176-1912 (tail without the IQ motif); Cloned into the pFastBac vector as m1; No removal of the His6 tag is described; also called His6–Myo16Tail (−IQ); source: baculovirus/Sf9, purified by the denaturing procedure (Ni-NTA), renatured
T2 sequence (looked up): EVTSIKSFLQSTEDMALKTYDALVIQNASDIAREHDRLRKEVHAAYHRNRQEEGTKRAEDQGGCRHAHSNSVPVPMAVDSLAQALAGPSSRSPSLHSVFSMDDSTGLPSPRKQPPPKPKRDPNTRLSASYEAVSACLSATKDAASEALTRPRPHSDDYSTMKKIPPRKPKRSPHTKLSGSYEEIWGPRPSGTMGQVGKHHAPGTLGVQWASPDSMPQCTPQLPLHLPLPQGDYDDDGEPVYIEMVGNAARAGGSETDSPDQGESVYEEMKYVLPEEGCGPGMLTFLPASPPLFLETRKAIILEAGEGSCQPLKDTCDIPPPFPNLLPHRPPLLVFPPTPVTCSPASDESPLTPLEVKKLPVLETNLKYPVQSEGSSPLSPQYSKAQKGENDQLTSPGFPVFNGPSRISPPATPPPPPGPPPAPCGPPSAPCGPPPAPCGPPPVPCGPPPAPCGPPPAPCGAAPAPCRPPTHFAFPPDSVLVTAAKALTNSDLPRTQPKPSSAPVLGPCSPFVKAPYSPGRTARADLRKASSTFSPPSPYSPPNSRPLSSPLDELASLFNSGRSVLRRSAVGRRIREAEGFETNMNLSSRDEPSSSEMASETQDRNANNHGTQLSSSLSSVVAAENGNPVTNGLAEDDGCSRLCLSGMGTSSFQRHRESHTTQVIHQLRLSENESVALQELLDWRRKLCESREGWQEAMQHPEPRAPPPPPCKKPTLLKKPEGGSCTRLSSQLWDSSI

[3] = target: T3, Alexa568-labelled synthesized rat myosin 16 IQ motif peptide (Alexa568–Myo16IQ) (Rattus norvegicus, UniProt Q9ERC1 1146-1175, Alexa Fluor C5 568 maleimide label, position not stated); assay: fluorescence polarisation; steady-state fluorescence anisotropy; Alexa568–Myo16IQ fixed (1 μM), Myo16Ank titrated; λex 578 nm, λem 601 nm; quadratic binding equation (Equation 1)
T3 construct: Myosin 16 IQ motif, Rattus norvegicus, residues 1146-1175 (30 amino acids, MW 3.6385 kDa by mass spectrometry); source: synthetic peptide (GenScript)
T3 peptide (looked up): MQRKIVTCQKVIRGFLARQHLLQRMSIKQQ

B1: Alexa568-labelled N-terminal ankyrin domain of myosin 16 (Alexa568–Myo16Ank) (domain or fragment)
chain: MEIDQCLLESLPLGQRQRLVRRMRCEQIKAYYEREKVFQKQEGLLKRIKPGKSQKVRFGLADMIQDAIIHHHDKEVLQLLKEGADPHTLVSSGGSLLHLCARYDNVFIAEVLIDRGVNVNHQDEDFWAPMHIACACDNPDIVLLLILAGANVLLQDVNGNIPLDYAVEGTESSAILLAYLDENGVDLNSLRQIKLQRPLSMLTDVRHFLSSGGDVNEKNDDGVTLLHMACASGYKEVVLLLLEHGGDLNGMDDGYWTPLHLAAKYGQTTLVKLLLAHQANPHLVNCNGEKPSDIAASESIEEMLLKAEIAWEERMKESPSVPSLAQEELYEEILHDLPELSSKLSPLVLPIAKQDSLLEKDIMFKDTTKGLCNQESQDGPPETSMVSSSSKPEQVQLTPP
modifications: Alexa Fluor C5 568 maleimide label, position not stated
In the case of B1, the Kd [1] is reported as 2.5 µM and the Kd [2] is reported as 5.6 µM.

B2: N-terminal ankyrin domain of myosin 16 (Myo16Ank), unlabelled (domain or fragment)
chain: MEIDQCLLESLPLGQRQRLVRRMRCEQIKAYYEREKVFQKQEGLLKRIKPGKSQKVRFGLADMIQDAIIHHHDKEVLQLLKEGADPHTLVSSGGSLLHLCARYDNVFIAEVLIDRGVNVNHQDEDFWAPMHIACACDNPDIVLLLILAGANVLLQDVNGNIPLDYAVEGTESSAILLAYLDENGVDLNSLRQIKLQRPLSMLTDVRHFLSSGGDVNEKNDDGVTLLHMACASGYKEVVLLLLEHGGDLNGMDDGYWTPLHLAAKYGQTTLVKLLLAHQANPHLVNCNGEKPSDIAASESIEEMLLKAEIAWEERMKESPSVPSLAQEELYEEILHDLPELSSKLSPLVLPIAKQDSLLEKDIMFKDTTKGLCNQESQDGPPETSMVSSSSKPEQVQLTPP
With B2 the Kd [3] was 16 µM.
